Source: patent CN107759691A (HANGZHOU SHANGJIAN BIOTECHNOLOGY CO LTD, dated 2018)

T1: 人AXL蛋白胞外段-人IgG1Fc段融合蛋白 (AXL-Fc) (human, UniProt P30530 26-451)
T1 construct: extracellular domain; Expressed in CHO-K1 cells; also called 靶抗原AXL-Fc; not shown: human IgG1 Fc fragment
T1 sequence (looked up): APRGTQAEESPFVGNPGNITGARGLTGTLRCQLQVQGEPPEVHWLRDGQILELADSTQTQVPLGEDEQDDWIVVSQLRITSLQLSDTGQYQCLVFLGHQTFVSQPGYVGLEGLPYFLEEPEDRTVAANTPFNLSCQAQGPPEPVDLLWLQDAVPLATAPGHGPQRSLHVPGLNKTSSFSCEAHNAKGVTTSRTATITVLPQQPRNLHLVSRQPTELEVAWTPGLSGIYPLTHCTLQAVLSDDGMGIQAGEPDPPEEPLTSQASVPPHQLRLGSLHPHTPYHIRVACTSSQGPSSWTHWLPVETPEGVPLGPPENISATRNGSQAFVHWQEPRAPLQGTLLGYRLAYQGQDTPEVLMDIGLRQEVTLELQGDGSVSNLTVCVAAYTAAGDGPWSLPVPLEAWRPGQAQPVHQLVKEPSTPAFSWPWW

T2: A549细胞表面AXL (UniProt P30530 26-894, limits assumed)
T2 construct: whole, on cells; Endogenous AXL on A549 cells, flow cytometry; also called AXL on A549 cells
T2 sequence (looked up): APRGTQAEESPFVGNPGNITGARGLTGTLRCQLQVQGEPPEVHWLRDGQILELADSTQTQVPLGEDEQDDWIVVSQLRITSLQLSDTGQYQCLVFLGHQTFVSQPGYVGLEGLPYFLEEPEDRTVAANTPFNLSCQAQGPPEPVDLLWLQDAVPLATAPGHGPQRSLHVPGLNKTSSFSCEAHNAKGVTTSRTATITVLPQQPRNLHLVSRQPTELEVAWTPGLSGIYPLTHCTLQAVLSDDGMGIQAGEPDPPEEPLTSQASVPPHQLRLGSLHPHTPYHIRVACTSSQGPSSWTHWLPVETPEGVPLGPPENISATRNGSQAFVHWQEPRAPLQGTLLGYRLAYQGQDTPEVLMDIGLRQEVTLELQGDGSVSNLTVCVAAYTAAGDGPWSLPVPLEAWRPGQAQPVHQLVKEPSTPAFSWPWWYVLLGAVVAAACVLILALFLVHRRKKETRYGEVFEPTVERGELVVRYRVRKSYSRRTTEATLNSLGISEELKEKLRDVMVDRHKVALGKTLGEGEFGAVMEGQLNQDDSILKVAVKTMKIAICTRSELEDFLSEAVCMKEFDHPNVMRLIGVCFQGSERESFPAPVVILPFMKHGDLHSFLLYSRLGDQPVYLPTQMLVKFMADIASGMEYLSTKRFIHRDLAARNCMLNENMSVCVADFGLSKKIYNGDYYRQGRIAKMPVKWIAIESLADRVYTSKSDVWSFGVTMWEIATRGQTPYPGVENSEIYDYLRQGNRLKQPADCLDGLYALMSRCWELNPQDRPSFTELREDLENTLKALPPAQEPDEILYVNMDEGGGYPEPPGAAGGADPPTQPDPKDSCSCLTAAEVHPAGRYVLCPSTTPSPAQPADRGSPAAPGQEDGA

B1: 3D3抗体 (antibody, V domains shown)
VH: EVKLLESGGGLVQPEGSLKLSCVASGFDFRRYWMSWVRQAPGKGLEWIGEINPAGSTINQTPSLKDKFIISRDNAKNTLYLQMSKVRSEDTALYYCVRLSVVFYYYGMDYWGQGTSVTVSS
VL: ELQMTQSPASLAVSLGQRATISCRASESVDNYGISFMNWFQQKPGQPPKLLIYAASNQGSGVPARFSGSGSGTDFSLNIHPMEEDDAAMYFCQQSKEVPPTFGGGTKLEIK
notes: also called 3D3 antibody
B2: C3D3(Chimeric 3D3)抗体 (antibody, human IgG1, kappa, V domains shown)
VH: EVKLLESGGGLVQPEGSLKLSCVASGFDFRRYWMSWVRQAPGKGLEWIGEINPAGSTINQTPSLKDKFIISRDNAKNTLYLQMSKVRSEDTALYYCVRLSVVFYYYGMDYWGQGTSVTVSS
VL: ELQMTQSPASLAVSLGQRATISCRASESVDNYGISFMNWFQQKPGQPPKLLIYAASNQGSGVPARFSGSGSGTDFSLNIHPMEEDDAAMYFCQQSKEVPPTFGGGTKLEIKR
notes: Copies of 2 follow from the whole IgG format, not from a printed number; also called C3D3 antibody

Assays:
[1] = target: T1, 人AXL蛋白胞外段-人IgG1Fc段融合蛋白 (AXL-Fc); experiment: ELISA, AXL-Fc coated at 1μg/ml, antibody titrated, OD450
A549细胞表面AXL = target: T2, A549细胞表面AXL; experiment: flow cytometry on A549 cells, C3D3 diluted to 20μg/ml and mixed with an equal volume of cells, PE mouse anti-human IgG
BSA(BOVOGEN) = target: T3, BSA(BOVOGEN) (UniProt P02769 25-607); experiment: ELISA, protein coated at 1μg/ml, C3D3 detected with HRP goat anti-human IgG
T3 construct: Control coating
T3 sequence (P02769 25-607 limits assumed): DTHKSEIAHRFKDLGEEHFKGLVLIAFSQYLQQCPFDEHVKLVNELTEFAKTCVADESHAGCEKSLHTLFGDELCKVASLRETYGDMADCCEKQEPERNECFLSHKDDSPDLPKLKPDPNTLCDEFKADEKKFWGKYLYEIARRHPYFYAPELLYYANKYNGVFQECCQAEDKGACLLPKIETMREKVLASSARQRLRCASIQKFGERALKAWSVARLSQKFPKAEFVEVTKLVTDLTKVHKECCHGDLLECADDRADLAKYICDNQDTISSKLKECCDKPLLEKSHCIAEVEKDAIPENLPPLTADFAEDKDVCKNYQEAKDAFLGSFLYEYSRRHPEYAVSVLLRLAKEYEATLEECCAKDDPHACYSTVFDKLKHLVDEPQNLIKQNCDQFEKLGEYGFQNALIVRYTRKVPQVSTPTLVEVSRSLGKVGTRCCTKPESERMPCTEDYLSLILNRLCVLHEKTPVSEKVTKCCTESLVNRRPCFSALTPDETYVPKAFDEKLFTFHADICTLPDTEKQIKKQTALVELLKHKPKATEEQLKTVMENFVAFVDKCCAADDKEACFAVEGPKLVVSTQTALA

Row | binding result [1] | binding result (A549细胞表面AXL) | binding result (BSA(BOVOGEN)) | Binder
1 | binds |  |  | B1
2 | binds | binds | no binding | B2
